{"source": "paper PMC48140", "about": "(BMC Cell Biology, 2001)", "proteins": {"B1": {"name": "MP20, lens fiber cell membrane protein (natural protein, ovine, UniProt A0ACI6P5E9 1-173, looked up)", "chain": "MYSFMGGGLFCAWVGTILLVVATATDHWMQYRLSGAFAHQGLWRYCLGTKCYLQTESIAYWNATRAFMILSSLCATSGIIMGIVAFAQQPTFTRLSRPFSAGIMFFASTFFVLLALAIYTGVTVSFLGRRFGDWRFSWSYILGWVALLMTFFAGIFYMCAYRMHECRRLSTPR"}}, "target": "the molecule itself", "assay": "SDS-PAGE with immunoblot"}
{"protein": "B1", "values": [{"measurement": "stoichiometry N", "result": 2}]}
